Experimental findings from article PMC2799554 are described below.

The experiment concerns the target Moraxella immunoglobulin (Ig) D binding protein (MID) of M. catarrhalis BBH18, on whole bacteria and on their outer membrane vesicles (OMV) (Moraxella catarrhalis). The experiment is described as follows: flow cytometry on cells.

Consider “human IgD, soluble, from serum (natural protein)”, for which the percent reduction of bacterial binding to B cells at 150 µg/ml IgD was 40%.
